Data taken from paper PMC5457524, “An engineered high affinity Fbs1 carbohydrate binding protein for selective capture of N-glycans and N-glycopeptides” (Nature Communications, 2017).
Substitutions are numbered along the chain they refer to. In names and notes the source's numbering stands. No end group written: not given here. TMR = tetramethylrhodamine

T1: fetuin (UniProt P12763 19-359, sialylated complex N-linked glycans)
T1 construct: fetuin; Denatured by boiling in Rapid PNGase F buffer, or on Affi-Gel 15 beads with 6 M guanidine-HCl; also called sialylated fetuin; fetuin beads; source: bought: New England Biolabs; denatured before the assay
T1 sequence (looked up): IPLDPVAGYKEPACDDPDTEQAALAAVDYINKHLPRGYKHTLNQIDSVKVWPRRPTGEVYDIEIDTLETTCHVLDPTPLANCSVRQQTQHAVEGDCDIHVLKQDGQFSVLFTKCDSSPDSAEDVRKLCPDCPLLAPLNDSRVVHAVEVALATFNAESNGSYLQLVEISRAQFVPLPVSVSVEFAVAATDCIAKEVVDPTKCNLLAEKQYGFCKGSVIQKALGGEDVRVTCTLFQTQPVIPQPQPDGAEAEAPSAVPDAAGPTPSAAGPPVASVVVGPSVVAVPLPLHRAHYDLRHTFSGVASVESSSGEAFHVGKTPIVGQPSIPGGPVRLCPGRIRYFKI

T2: SNAP-Fbs1 fusion protein (wild-type human Fbs1 sugar-binding domain, residues 92-296) (human, UniProt Q9UK22 92-296)
T2 construct: Immobilised covalently through the SNAP tag on benzylguanine (BG) agarose beads in the bead assays; also called wt Fbs1; Fbs1 beads; source: NEB Express E. coli, purified (for Fbs1 beads and ITC); E. coli cell lysate (fetuin or RNase B bead pulldown); not shown: SNAP tag, N-terminal, kept
T2 sequence (looked up): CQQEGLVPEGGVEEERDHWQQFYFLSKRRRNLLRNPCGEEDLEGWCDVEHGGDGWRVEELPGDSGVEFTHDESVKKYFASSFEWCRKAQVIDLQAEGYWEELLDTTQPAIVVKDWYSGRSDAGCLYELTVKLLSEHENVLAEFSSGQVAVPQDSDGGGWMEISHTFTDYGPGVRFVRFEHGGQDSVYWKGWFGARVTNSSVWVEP

B1: SNAP-Fbs1 GYR variant (S155G, F173Y, E174R) (designed binder)
chain: T2 sequence (looked up) with S64G, F82Y, E83R
notes: numbered on the full-length human protein; source: E. coli, purified (for beads and N-glyco-FASP); E. coli cell lysate (fetuin bead pulldown); not shown: SNAP tag, N-terminal, kept
B2: SNAP-Fbs1 PPRYR variant (combination of PPR and YR) (designed binder)
chain: T2 sequence (looked up) with D63P, S64P, G65R, F82Y, E83R
notes: numbered on the full-length human protein; source: E. coli, purified (for beads); E. coli cell lysate (fetuin bead pulldown); not shown: SNAP tag, N-terminal, kept
B3: SNAP-Fbs1 S155A mutant (domain or fragment, human, UniProt Q9UK22 92-296, looked up)
chain: T2 sequence (looked up) with S64A
notes: numbered on the full-length human protein; source: E. coli cell lysate; not shown: SNAP tag, N-terminal, kept
B4: SNAP-Fbs1 S155G mutant (domain or fragment, human, UniProt Q9UK22 92-296, looked up)
chain: T2 sequence (looked up) with S64G
notes: as for B3
B5: sialylglycopeptide (SGP) (peptide)
peptide: KVAN(bi‑antennary complex N‑glycan, terminal sialic acids)KT
notes: naturally occurring glycopeptide of six amino acids; source: bought: Fushimi Pharmaceutical Co., Ltd
B6: RNase B (natural protein, UniProt P61823 27-150, looked up)
chain: KETAAAKFERQHMDSSTSAASSSNYCNQMMKSRNLTKDRCKPVNTFVHESLADVQAVCSQKNVACKNGQTNCYQSYSTMSITDCRETGSSKYPNCAYKTTQANKHIIVACEGNPYVPVHFDASV
modifications: a single site modified by a variety of high-mannose N-glycans
notes: RNase B, the N-glycosylated form of pancreatic ribonuclease; Denatured by boiling (SDS/DTT or Rapid PNGase F buffer), or on Affi-Gel 10 beads with 6 M guanidine-HCl; source: bought: New England Biolabs; denatured before the assay
B7: SGP-TMR (SGP labelled with two TMR fluorophores on the lysines) (peptide)
peptide: K(TMR)VAN(bi‑antennary complex N‑glycan, terminal sialic acids)K(TMR)T
notes: peptide of SGP; also called glycopeptide 1
B8: SGP-TMR without sialic acids and galactose (peptide)
peptide: K(TMR)VANK(TMR)T
modifications: not fully specified (residue 4)
notes: peptide of SGP; also called glycopeptide 3; source: SGP-TMR trimmed with α2-3,6,8 Neuraminidase and β1-4 Galactosidase S
B9: SGP-TMR without sialic acids, galactose and GlcNAc (peptide)
peptide: K(TMR)VAN(N‑glycan pentasaccharide core)K(TMR)T
notes: peptide of SGP; also called glycopeptide 4; source: SGP-TMR trimmed with α2-3,6,8 Neuraminidase, β1-4 Galactosidase S and β-N-Acetylglucosaminidase S

Columns and labels:
[1] = target: T1, fetuin; test: pull-down; fetuin (Affi-Gel 15) or RNase B (Affi-Gel 10) beads, denatured with 6 M guanidine-HCl; E. coli cell lysate with wt or mutant SNAP-Fbs1; 20 mM Tris.HCl pH 7.5, 1 mM EDTA, 50 mM NaCl (low salt) or 2 M NaCl (high salt), 30% Protein-Free Blocking buffer; 4 °C, 1 h; SDS-PAGE, ImageJ; conditions: one partner purified
[2] = target: T2, SNAP-Fbs1 fusion protein (wild-type …); test: ITC; 270 μM SGP injected into 27 μM SNAP-Fbs1; 20 mM Tris.HCl pH 7.5, 1 mM EDTA, 50 mM NaCl (low salt); single site binding model; conditions: both partners purified
[3] = target: T2, SNAP-Fbs1 fusion protein (wild-type …); test: ITC; 270 μM SGP injected into 27 μM SNAP-Fbs1; 20 mM Tris.HCl pH 7.5, 1 mM EDTA, 2 M NaCl (high salt); single site binding model; conditions: both partners purified
[4] = target: B1; test: affinity purification with mass spectrometry; wt Fbs1 or Fbs1 GYR enrichment from a tryptic digest of RNase B spiked with SGP and SGP-TMR; low salt (50 mM ammonium acetate, pH7.5); LC-MS, SGP-TMR by fluorescence; conditions: both partners purified
[5] = target: B1; test: pull-down; wt, GYR or PPRYR SNAP-Fbs1 on BG beads; mixture of denatured fetuin and RNase B; low salt (50 mM ammonium acetate pH 7.5 named for Fig. 4a); 4 °C, 1 h; SDS-PAGE; conditions: both partners purified
[6] = target: B1; test: pull-down; wt or GYR SNAP-Fbs1 on BG beads; TMR-labelled glycopeptides; 4 °C, 1 h; bound amount from the TMR fluorescence left in the supernatant, given as recovery percentage; low salt (50 mM NaCl or 50 mM ammonium acetate pH 7.5) or high salt (2 M NaCl); conditions: both partners purified
[7] = target: T2, SNAP-Fbs1 fusion protein (wild-type …); test: as above; conditions: both partners purified

## B1
[1]
  fold change of the pulled-down amount against wt Fbs1: ≥ 3.5 fold

## B2
[1]
  fold change of the pulled-down amount against wt Fbs1: ≥ 3.5 fold

## B3
[1]
  fold change of the pulled-down amount against wt Fbs1: 1.5 fold

## B4
[1]
  fold change of the pulled-down amount against wt Fbs1: 2 fold

## B5
[2]
  Kd: 3000 nM
[3]
  Kd: 1400 ± 40 nM
[4]
  binding result: binds

## B6
[5]
  binding result: binds

## B7
[6]
  binding result: binds

## B8
[6]
  binding result: binds

## B9
[7]
  fold improvement in recovery (against untrimmed SGP-TMR): ≥ 3 fold
[6]
  binding result: binds
